The values that follow come from paper PMC8498191, “Structural and Mechanistic Insights Into Dimethylsulfoxide Formation Through Dimethylsulfide Oxidation” (Frontiers in Microbiology, 2021).

In one data set the target is T1, Tmm7211 (Candidatus Pelagibacter sp. HTCC7211, UniProt B6BQB2).
T1 construct: gene tmm; full-length synthesized gene (1335 bp, 444 residues, 52 kDa), N-terminal His tag (pET28a), E. coli BL21(DE3); Ni-NTA and Superdex-200
T1 sequence (B6BQB2 1-444): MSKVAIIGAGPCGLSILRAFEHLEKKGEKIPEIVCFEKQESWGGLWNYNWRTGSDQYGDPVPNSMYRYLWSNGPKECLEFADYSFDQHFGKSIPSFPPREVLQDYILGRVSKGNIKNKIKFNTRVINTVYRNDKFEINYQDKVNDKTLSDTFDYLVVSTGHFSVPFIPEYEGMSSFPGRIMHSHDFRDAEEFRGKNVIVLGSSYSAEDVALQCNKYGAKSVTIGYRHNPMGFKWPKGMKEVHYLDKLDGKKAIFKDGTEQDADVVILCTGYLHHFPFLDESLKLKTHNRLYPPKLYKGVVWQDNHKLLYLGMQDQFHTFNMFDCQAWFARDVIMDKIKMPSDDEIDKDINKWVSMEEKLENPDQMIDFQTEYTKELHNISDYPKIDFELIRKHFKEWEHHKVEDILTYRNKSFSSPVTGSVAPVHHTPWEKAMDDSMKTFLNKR
Briefly: NADPH oxidation at […] nm. It is filed as biochemical. The following applies: read-out: Apparent KM; 0.25 mM NADPH, 1 μM enzyme, 10 mM Tris-HCl pH 7.0, 100 mM NaCl.

Substrate in data set [1]: NC(=O)C1=CN([C@@H]2O[C@H](COP(=O)(O)OP(=O)(O)OC[C@H]3O[C@@H](n4cnc5c(N)ncnc54)[C@H](OP(=O)(O)O)[C@@H]3O)[C@@H](O)[C@H]2O)C=CC1
Briefly: purified protein. It counts as biochemical, Candidatus Pelagibacter sp. HTCC7211. The following applies: 1 mM DMS, 1.5 μM enzyme.

Substrate in data set [2]: CSC
The data set can be described thus: purified protein. It is filed as biochemical, Candidatus Pelagibacter sp. HTCC7211. The settings on record: 0.25 mM NADPH, 1 μM enzyme, 10 mM Tris-HCl pH 7.0, 100 mM NaCl; pH 7.0.

Substrate in data set [3]: CN(C)C
The data set can be described thus: purified protein. It counts as biochemical, Candidatus Pelagibacter sp. HTCC7211. The settings on record: 0.25 mM NADPH, 1 μM enzyme, 10 mM Tris-HCl pH 7.0, 100 mM NaCl; pH 7.0.

Data set [4] deals with the molecule itself. Briefly: SEC; analytical gel filtration on a calibrated Superose 6 column, 10 mM Tris-HCl (pH 8.0), 100 mM NaCl; apparent mass 95 kDa against 52 kDa calculated for the monomer.
Substrate in data set [5]: Cn1cc[nH]c1=S
Briefly: purified protein. The following applies: 0.25 mM NADPH, 1 μM enzyme, 10 mM Tris-HCl pH 7.0, 100 mM NaCl.

For the molecule `CNC` [DMA], the Km (usually the substrate concentration at which the rate is half of its maximum) on Tmm7211 was found to be 181 ± 23.7 µM.

B1: trimethylamine monooxygenase from Pelagibacter sp. HTCC7211 (Tmm_(7211)) (enzyme, UniProt B6BQB2 1-444, looked up)
chain: T1 sequence (B6BQB2 1-444)
notes: trimethylamine monooxygenase (Tmm, EC 1.14.13.148), a bacterial flavin-containing monooxygenase of the SAR11 bacterium Pelagibacter sp; HTCC7211; 1335-bp full-length tmm gene, synthesised; 444 amino acid residues, calculated mass 52 kDa; NADPH (5 mM) was added before crystallisation, and NADP+ and FAD are seen in the structure; Cloned in pET28a; also called WT Tmm_(7211); recombinant Tmm_(7211); …
As for B1, the Km in the data set “purified protein [1]” turned out to be 12.8 ± 0.4 µM; in “purified protein [2]” it was 250.5 ± 23.0 µM; in “purified protein [3]”, 139.0 ± 10.7 µM; in “purified protein [5]”, 116.2 ± 13.8 µM. In addition, the kcat (as a rule, the number of substrate molecules converted per active site and unit of time at saturation) in “purified protein [1]” amounted to 0.075 ± 0.005 s⁻¹; in “purified protein [2]” it was 0.075 ± 0.005 s⁻¹; in “purified protein [3]”, 0.373 ± 0.0133 s⁻¹; in the data set “purified protein [5]”, 0.0867 s⁻¹. Also, the kcat/Km – broadly, the second-order rate constant that governs catalysis at low substrate concentration – in the data set “purified protein [2]” turned out to be 300 M⁻¹ s⁻¹; in the data set “purified protein [3]”, 2690 M⁻¹ s⁻¹; in the data set “purified protein [5]” it was 747 M⁻¹ s⁻¹. Besides, the stoichiometry N (usually the number of molecules, sites or subunits per partner or assembly) in data set [4] was 2.
